Measurements from US20200199241A1 (Chugai, published 2020).

T1: human FcγRIIa(R) (human, UniProt P12318 36-217)
T1 construct: also called FcgRIIaR; hFcgRIIa(R)
T1 chain: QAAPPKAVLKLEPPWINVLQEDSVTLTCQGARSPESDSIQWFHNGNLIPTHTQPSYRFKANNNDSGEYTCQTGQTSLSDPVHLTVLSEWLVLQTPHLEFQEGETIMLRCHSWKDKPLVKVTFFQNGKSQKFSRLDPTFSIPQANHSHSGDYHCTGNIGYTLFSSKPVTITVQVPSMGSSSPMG

T2: human FcγRIIa(H) (human, UniProt P12318 36-217)
T2 construct: also called FcgRIIaH; hFcgRIIa(H)
T2 sequence: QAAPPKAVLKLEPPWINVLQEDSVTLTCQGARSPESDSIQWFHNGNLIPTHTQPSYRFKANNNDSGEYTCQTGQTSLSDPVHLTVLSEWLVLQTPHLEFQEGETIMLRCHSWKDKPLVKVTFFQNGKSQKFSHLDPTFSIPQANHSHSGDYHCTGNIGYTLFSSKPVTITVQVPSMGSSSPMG

T3: human FcγRIIb (human, UniProt P31994 43-217, limits assumed)
T3 construct: also called FcgRIIb; hFcgRIIb
T3 sequence: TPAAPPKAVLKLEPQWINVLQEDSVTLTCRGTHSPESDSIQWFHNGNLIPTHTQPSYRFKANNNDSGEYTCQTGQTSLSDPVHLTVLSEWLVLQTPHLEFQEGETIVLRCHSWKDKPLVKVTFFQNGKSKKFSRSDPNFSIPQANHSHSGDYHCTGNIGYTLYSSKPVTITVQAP


What was measured:
Experiment in all cases: SPR, captured antibody;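 further: antibody captured on a sensor chip, Fcγ receptor flowed over at 25 °C, receptor binding normalized to the captured antibody amount and expressed relative to the reference antibody ×100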
human FcγRIa = target: T4, human FcγRIa (human, UniProt P12314 16-292, limits assumed)
T4 construct: also called FcgRIa; hFcgRIa

human FcγRIIa(R) = target: T1, human FcγRIIa(R)
human FcγRIIa(H) = target: T2, human FcγRIIa(H)
human FcγRIIb = target: T3, human FcγRIIb

T4 sequence (P12314 16-292 limits assumed): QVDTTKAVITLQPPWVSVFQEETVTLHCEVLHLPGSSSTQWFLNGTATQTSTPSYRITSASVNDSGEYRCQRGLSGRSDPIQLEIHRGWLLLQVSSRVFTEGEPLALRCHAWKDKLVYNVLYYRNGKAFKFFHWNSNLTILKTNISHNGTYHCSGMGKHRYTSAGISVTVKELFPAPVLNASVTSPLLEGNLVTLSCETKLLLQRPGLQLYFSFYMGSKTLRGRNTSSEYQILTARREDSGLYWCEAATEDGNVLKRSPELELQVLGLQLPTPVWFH

| relative binding activity (human FcγRIa) | relative binding activity (human FcγRIIa(R)) | relative binding activity (human FcγRIIa(H)) | relative binding activity (human FcγRIIb) | Binder |
| --- | --- | --- | --- | --- |
| 94 % of GpH7-B3/GpL16-k0 | 55 % of GpH7-B3/GpL16-k0 | 4 % of GpH7-B3/GpL16-k0 | 48 % of GpH7-B3/GpL16-k0 | GpH7-B3 N325W/GpL16-k0 (antibody, human IgG1, B3 variant; copies: 2 + 2) heavy: not shown light: DIVMTQSPLSLPVTPGEPASISCQASESLVHSNRNTYLHWYLQKPGQSPQLLIYKVSNRFSGVPDRFSGSGSGTDFTLKISRVEAEDVGVYYCSQNTHVPPTFGQGTKVEIE |
| 84 % of GpH7-B3/GpL16-k0 | 37 % of GpH7-B3/GpL16-k0 | 9 % of GpH7-B3/GpL16-k0 | 35 % of GpH7-B3/GpL16-k0 | GpH7-B3 N325V/GpL16-k0 (antibody, human IgG1, B3 variant; copies: 2 + 2) heavy: not shown light: DIVMTQSPLSLPVTPGEPASISCQASESLVHSNRNTYLHWYLQKPGQSPQLLIYKVSNRFSGVPDRFSGSGSGTDFTLKISRVEAEDVGVYYCSQNTHVPPTFGQGTKVEIE |
| 98 % of GpH7-B3/GpL16-k0 | 59 % of GpH7-B3/GpL16-k0 | 27 % of GpH7-B3/GpL16-k0 | 49 % of GpH7-B3/GpL16-k0 | GpH7-B3 N325T/GpL16-k0 (antibody, human IgG1, B3 variant; copies: 2 + 2) heavy: not shown light: DIVMTQSPLSLPVTPGEPASISCQASESLVHSNRNTYLHWYLQKPGQSPQLLIYKVSNRFSGVPDRFSGSGSGTDFTLKISRVEAEDVGVYYCSQNTHVPPTFGQGTKVEIE |
| 92 % of GpH7-B3/GpL16-k0 | 42 % of GpH7-B3/GpL16-k0 | 9 % of GpH7-B3/GpL16-k0 | 39 % of GpH7-B3/GpL16-k0 | GpH7-B3 N325Y/GpL16-k0 (antibody, human IgG1, B3 variant; copies: 2 + 2) heavy: not shown light: DIVMTQSPLSLPVTPGEPASISCQASESLVHSNRNTYLHWYLQKPGQSPQLLIYKVSNRFSGVPDRFSGSGSGTDFTLKISRVEAEDVGVYYCSQNTHVPPTFGQGTKVEIE |
| 100 % of GpH7-B3/GpL16-k0 | 34 % of GpH7-B3/GpL16-k0 | 26 % of GpH7-B3/GpL16-k0 | 41 % of GpH7-B3/GpL16-k0 | GpH7-B3 I332P/GpL16-k0 (antibody, human IgG1, B3 variant; copies: 2 + 2) heavy: not shown light: DIVMTQSPLSLPVTPGEPASISCQASESLVHSNRNTYLHWYLQKPGQSPQLLIYKVSNRFSGVPDRFSGSGSGTDFTLKISRVEAEDVGVYYCSQNTHVPPTFGQGTKVEIE |
| 99 % of GpH7-B3/GpL16-k0 | 49 % of GpH7-B3/GpL16-k0 | 55 % of GpH7-B3/GpL16-k0 | 38 % of GpH7-B3/GpL16-k0 | GpH7-B3 P271F/GpL16-k0 (antibody, human IgG1, B3 variant; copies: 2 + 2) heavy: not shown light: DIVMTQSPLSLPVTPGEPASISCQASESLVHSNRNTYLHWYLQKPGQSPQLLIYKVSNRFSGVPDRFSGSGSGTDFTLKISRVEAEDVGVYYCSQNTHVPPTFGQGTKVEIE |
| 98 % of GpH7-B3/GpL16-k0 | 58 % of GpH7-B3/GpL16-k0 | 58 % of GpH7-B3/GpL16-k0 | 53 % of GpH7-B3/GpL16-k0 | GpH7-B3 P271H/GpL16-k0 (antibody, human IgG1, B3 variant; copies: 2 + 2) heavy: not shown light: DIVMTQSPLSLPVTPGEPASISCQASESLVHSNRNTYLHWYLQKPGQSPQLLIYKVSNRFSGVPDRFSGSGSGTDFTLKISRVEAEDVGVYYCSQNTHVPPTFGQGTKVEIE |
| 94 % of GpH7-B3/GpL16-k0 | 38 % of GpH7-B3/GpL16-k0 | 14 % of GpH7-B3/GpL16-k0 | 27 % of GpH7-B3/GpL16-k0 | GpH7-B3 N325A/GpL16-k0 (antibody, human IgG1, B3 variant; copies: 2 + 2) heavy: not shown light: DIVMTQSPLSLPVTPGEPASISCQASESLVHSNRNTYLHWYLQKPGQSPQLLIYKVSNRFSGVPDRFSGSGSGTDFTLKISRVEAEDVGVYYCSQNTHVPPTFGQGTKVEIE |
| 98 % of GpH7-B3/GpL16-k0 | 25 % of GpH7-B3/GpL16-k0 | 34 % of GpH7-B3/GpL16-k0 | 78 % of GpH7-B3/GpL16-k0 | GpH7-B3 L328N/GpL16-k0 (antibody, human IgG1, B3 variant; copies: 2 + 2) heavy: not shown light: DIVMTQSPLSLPVTPGEPASISCQASESLVHSNRNTYLHWYLQKPGQSPQLLIYKVSNRFSGVPDRFSGSGSGTDFTLKISRVEAEDVGVYYCSQNTHVPPTFGQGTKVEIE |
| 30 % of GpH7-B3/GpL16-k0 | -17 % of GpH7-B3/GpL16-k0 | -2 % of GpH7-B3/GpL16-k0 | -4 % of GpH7-B3/GpL16-k0 | GpH7-B3 L328K/GpL16-k0 (antibody, human IgG1, B3 variant; copies: 2 + 2) heavy: not shown light: DIVMTQSPLSLPVTPGEPASISCQASESLVHSNRNTYLHWYLQKPGQSPQLLIYKVSNRFSGVPDRFSGSGSGTDFTLKISRVEAEDVGVYYCSQNTHVPPTFGQGTKVEIE |
| 95 % of GpH7-B3/GpL16-k0 | 26 % of GpH7-B3/GpL16-k0 | 7 % of GpH7-B3/GpL16-k0 | 22 % of GpH7-B3/GpL16-k0 | GpH7-B3 N325G/GpL16-k0 (antibody, human IgG1, B3 variant; copies: 2 + 2) heavy: not shown light: DIVMTQSPLSLPVTPGEPASISCQASESLVHSNRNTYLHWYLQKPGQSPQLLIYKVSNRFSGVPDRFSGSGSGTDFTLKISRVEAEDVGVYYCSQNTHVPPTFGQGTKVEIE |
| 93 % of GpH7-B3/GpL16-k0 | 34 % of GpH7-B3/GpL16-k0 | 13 % of GpH7-B3/GpL16-k0 | 27 % of GpH7-B3/GpL16-k0 | GpH7-B3 N325H/GpL16-k0 (antibody, human IgG1, B3 variant; copies: 2 + 2) heavy: not shown light: DIVMTQSPLSLPVTPGEPASISCQASESLVHSNRNTYLHWYLQKPGQSPQLLIYKVSNRFSGVPDRFSGSGSGTDFTLKISRVEAEDVGVYYCSQNTHVPPTFGQGTKVEIE |
